Measurements as given in publication PMC3630135, “Tenascin C Promiscuously Binds Growth Factors via Its Fifth Fibronectin Type III-Like Domain” (PLoS ONE, 2013).

T1: GST-TNCIII5 (human, UniProt P24821 983-1074)
T1 construct: tenascin C, fifth TNCIII domain, T983–A1074; source: E. coli BL21, purified (Ni-NTA agarose)
T1 sequence (looked up): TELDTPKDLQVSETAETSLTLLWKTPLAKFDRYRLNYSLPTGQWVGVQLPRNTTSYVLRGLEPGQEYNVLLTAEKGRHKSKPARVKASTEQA

B1: neurotrophin-3 (ligand)
chain: YAEHKSHRGEYSVCDSESLWVTDKSSAIDIRGHQVTVLGEIKTGNSPVKQYFYETRCKEARPVKNGCRGIDDKHWNSQCKTSQTYVRALTSENNKLVGWRWIRIDTSCVCALSRKIGRT
B2: PDGF-BB (ligand, human, UniProt P01127 82-190, looked up)
chain: SLGSLTIAEPAMIAECKTRTEVFEISRRLIDRTNANFLVWPPCVEVQRCSGCCNNRNVQCRPTQVQLRPVQVRKIEIVRKKPIFKKATVTLEDHLACKCETVAAARPVT
notes: Two B chains by its name; source: bought: Gibco

Key:
[1] = molecular target: Bone morphogenetic protein (BMP)-2 (human) (UniProt P12643); test: ELISA; cross-competition: growth factor (50 nM) coated; 10 nM TNCIII1–5 with full length TNC (0, 0.2, 0.6, 1.9, 5.6, […], 50 nM) in PBST, 1 h RT; TNCIII1–5 detected with HRP-anti-HIS; relative to binding without TNC
Chain of Bone morphogenetic protein (BMP)-2 (human) (P12643 283-396): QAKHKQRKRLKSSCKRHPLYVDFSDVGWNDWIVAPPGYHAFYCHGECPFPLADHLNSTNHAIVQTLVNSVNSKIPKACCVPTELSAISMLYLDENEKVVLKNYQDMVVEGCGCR

FGF-2 (human) = FGF-2 (human) (UniProt P09038); test: as above
Chain of FGF-2 (human) (P09038 143-288): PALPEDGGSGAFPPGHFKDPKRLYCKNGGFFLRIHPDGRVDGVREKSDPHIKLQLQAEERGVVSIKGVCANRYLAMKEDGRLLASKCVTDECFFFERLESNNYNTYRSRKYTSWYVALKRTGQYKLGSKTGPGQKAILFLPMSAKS

[2] = molecular target: Bone morphogenetic protein (BMP)-2 (human) (UniProt P12643); test: ELISA; as a1 but with 4 µM heparin (40-fold excess over 100 nM TNCIII1-5) during the incubation with TNCIII1-5
neurotrophin-3 (human) = neurotrophin-3 (human) (UniProt P20783); test: as above
[3] = molecular target: TNCIII1–5 (first five fibronectin type III-like repeats of human tenascin C, with N-terminal transglutaminase substrate and C-terminal 6xHis tag) (UniProt P24821); test: SPR; Biacore X100; about 450 RU TNCIII1–5 amine-coupled on Sensor Chip C1, BSA on the control channel; growth factors flowed in PBS with 0.1% BSA at 30 µl/min; Langmuir fit
GST-TNCIII5 = molecular target: T1, GST-TNCIII5; test: ELISA; GST-TNCIII domains (1 µM in PBS) coated, blocked with 2% BSA; 2 nM PDGF-BB, 1 h RT; detected with anti-PDGF-BB and HRP anti-mouse; conditions: both partners purified

| Molecule | Kd [3] [nM] | koff [3] [s⁻¹] | kon [3] [M⁻¹ s⁻¹] | other results |
| --- | --- | --- | --- | --- |
| full-length native human tenascin C (from UniProt P24821 23-2201) (natural protein) |  |  |  | IC50 [1]: > 50 nM; percent inhibition of TNCIII1–5 binding at 50 nM TNC [1]: 34%; IC50 (FGF-2 (human)): 5.6 nM |
| TNCIII1–5 (first five fibronectin type III-like repeats of human tenascin C, with N-terminal transglutaminase substrate and C-terminal 6xHis tag) (from UniProt P24821 622-1074) (domain or fragment) |  |  |  | percent of the original binding retained with 4 µM heparin [2]: 66%; percent of the original binding retained with 4 µM heparin (neurotrophin-3 (human)): 57% |
| TGF-β1 (ligand) | 20.3 | 0.000237 | 11700 |  |
| B1 | 21 | 0.00106 | 50700 |  |
| B2 |  |  |  | fold binding level against TNCIII4 (GST-TNCIII5): 4 fold |
